Laboratory results reported in the supplement of paper PMC7877785.
± gives the uncertainty stated by the source.

Assay: self-splicing fitness, log relative to wild type (ln ratio); higher = more splicing; Tetrahymena group I intron in knt gene, E. coli kanamycin selection, DiMSum; sequences stand for … in CUCUCU…GGAGGGAAAAGUUAUCAGGCAUGCACCUGGUAGCUAGUCUUUAAACCAAUAGAUUGCAUCGGUUUAAAAGGCAAGACCGUCAAAUUGCGGGAAAGGGGUCAACAGCCGUUCAGUACCAAGUCUCAGGGGAAACUUUGAGAUGGCCUUGCAAAGGGUAUGGUAAUAAGCUGACGGACAUGGUCCUAACCACGCAGCCAAGUCCUAAGUCAACAGAUCUUCUGUUGAUAUGGAUGCAGUUCACAGACUAAAUGUCGGUCGGGGAAGAUGUAUUCUUCUCAUAAGAUAUAGUCGGACCUCUCCUUAAUGGGAGCUAGCGGAUGAAGUGAUGCAACACUGGAGCCGCUGGGAACUAAUUUGUAUGCGAAAGUAUAUUGAUUAGUUUUGGAGUACUCGUGGUCG
Outline: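 A randomised library covering all eight P1ex-region intron nucleotides was built with the intron in the knt kanamycin-resistance gene on pET-22b(+) and held in E. coli BL21(DE3). Cells were grown overnight at 37°C or 30°C on LB agar, with or without 25 μg/mL kanamycin, plus 100 μg/mL carbenicillin, 50 μM IPTG and 0.2% rhamnose, and pooled colonies were amplicon-sequenced on an Illumina HiSeq 2500. DiMSum fitness is the error-weighted combination of wild-type-normalised replicate fold changes, kanamycin versus none.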

Sequence	self-splicing fitness (ln) (30 °C)	self-splicing fitness (ln) (37 °C)
GACGAGCAAUAUUACGGCCC	-0.0683 ± 0.45	-0.45 ± 0.4
GACGAGCAAUAUUACGGGGC	-2.83 ± 0.13	-2.25 ± 0.16
GACGAGCAAUAUUACGGUCU	-2.33 ± 0.15	-2.8 ± 0.27
GACGAGCAAUAUUACGGUGG	-3.01 ± 0.16	-2.77 ± 0.19
GACGAGCAAUAUUACGGUGU	-4.63 ± 0.45	-2.64 ± 0.22
GACGAGCAAUAUUACGUGUG	-2.9 ± 0.087	-1.01 ± 0.077
GACGAGCAAUAUUACGUUAU	-4.17 ± 0.39	-2.36 ± 0.31
GACGAGCAAUAUUACGUUUC	-2.64 ± 0.24	-3.33 ± 0.33
GACGAGCAAUAUUACGUUUU	-4.36 ± 0.28	-1.61 ± 0.13
GACUAGCAAUAUUACGAAGA	-1.87 ± 0.13	-0.416 ± 0.13
GACUAGCAAUAUUACGACCG	-0.436 ± 0.3	-0.537 ± 0.34
GACUAGCAAUAUUACGACGA	-0.416 ± 0.074	0.00653 ± 0.078
GACUAGCAAUAUUACGAGGU	-2.34 ± 0.2	-1.64 ± 0.2
GACUAGCAAUAUUACGAGUU	-4.75 ± 0.32	-2.74 ± 0.3
GACUAGCAAUAUUACGAUAU	-0.566 ± 0.075	-0.0805 ± 0.1
GACUAGCAAUAUUACGCAAU	-1.34 ± 0.19	-1.38 ± 0.17
GACUAGCAAUAUUACGCCCG	-1.77 ± 0.24	-0.58 ± 0.28
GACUAGCAAUAUUACGCGUA	-0.78 ± 0.11	-0.344 ± 0.097
GACUAGCAAUAUUACGGCAC	-0.648 ± 0.14	0.581 ± 0.16
GACUAGCAAUAUUACGGCCC	–	0.226 ± 0.4
GACUAGCAAUAUUACGGGCA	-0.911 ± 0.072	0.2 ± 0.085
GACUAGCAAUAUUACGUCGA	-1.96 ± 0.11	-0.484 ± 0.1
GACUAGCAAUAUUACGUCUU	-0.971 ± 0.099	-1.39 ± 0.15
GACUAGCAAUAUUACGUGUC	-2.59 ± 0.42	–
GACUAGCAAUAUUACGUGUU	-2.22 ± 0.11	-2.07 ± 0.17

Sequence	self-splicing fitness (ln) (30 °C)	self-splicing fitness (ln) (37 °C)
GACUAGCAAUAUUACGUUAC	-2.46 ± 0.19	-1.84 ± 0.22
GACUAGCAAUAUUACGUUCC	-3.69 ± 0.3	-2.17 ± 0.23
GAGAAGCAAUAUUACGAACA	-1.05 ± 0.17	-1.57 ± 0.2
GAGAAGCAAUAUUACGACUU	-1.9 ± 0.14	-1.14 ± 0.14
GAGAAGCAAUAUUACGAUAU	-2.18 ± 0.16	-0.855 ± 0.15
GAGAAGCAAUAUUACGAUUC	-0.752 ± 0.094	-0.653 ± 0.15
GAGAAGCAAUAUUACGAUUU	-0.24 ± 0.081	0.493 ± 0.087
GAGAAGCAAUAUUACGCAGU	-3.98 ± 0.23	-2.06 ± 0.17
GAGAAGCAAUAUUACGCCGA	-2.1 ± 0.24	-0.228 ± 0.17
GAGAAGCAAUAUUACGCCUG	-0.32 ± 0.098	-0.385 ± 0.17
GAGAAGCAAUAUUACGCGCG	-0.394 ± 0.14	0.218 ± 0.16
GAGAAGCAAUAUUACGCGGU	-2.38 ± 0.16	-0.663 ± 0.16
GAGAAGCAAUAUUACGCUCG	-1.07 ± 0.14	0.735 ± 0.18
GAGAAGCAAUAUUACGGAGA	-3.8 ± 0.24	-2.04 ± 0.28
GAGAAGCAAUAUUACGGGCA	-0.782 ± 0.1	-0.441 ± 0.087
GAGAAGCAAUAUUACGGUAU	-1.67 ± 0.096	-1.79 ± 0.17
GAGAAGCAAUAUUACGGUUA	-1.13 ± 0.12	-0.315 ± 0.13
GAGAAGCAAUAUUACGUAUG	-2.37 ± 0.14	-1.29 ± 0.14
GAGAAGCAAUAUUACGUAUU	-3.16 ± 0.14	-3.08 ± 0.23
GAGAAGCAAUAUUACGUCGU	-2.16 ± 0.075	-0.855 ± 0.077
GAGAAGCAAUAUUACGUGCA	-0.762 ± 0.084	-0.666 ± 0.094
GAGCAGCAAUAUUACGAAAU	-2.45 ± 0.21	-1.84 ± 0.21
GAGCAGCAAUAUUACGACUC	-2.56 ± 0.19	0.053 ± 0.17
GAGCAGCAAUAUUACGAUAA	-2.23 ± 0.29	-1.76 ± 0.24
GAGCAGCAAUAUUACGAUCC	-2.45 ± 0.19	-0.494 ± 0.17

Sequence	self-splicing fitness (ln) (30 °C)	self-splicing fitness (ln) (37 °C)
GAGCAGCAAUAUUACGAUGU	-3.19 ± 0.15	-1.37 ± 0.11
GAGCAGCAAUAUUACGCCCG	-1.84 ± 0.25	-0.798 ± 0.27
GAGCAGCAAUAUUACGCGCC	-3.87 ± 0.28	-3.17 ± 0.35
GAGCAGCAAUAUUACGCUUC	-2.37 ± 0.28	–
GAGCAGCAAUAUUACGGAAC	-3.14 ± 0.23	-2.13 ± 0.16
GAGCAGCAAUAUUACGGACC	-0.847 ± 0.11	-0.206 ± 0.16
GAGCAGCAAUAUUACGGAGG	-3.98 ± 0.21	-2.3 ± 0.21
GAGCAGCAAUAUUACGGCGG	-2.18 ± 0.11	-1.77 ± 0.16
GAGCAGCAAUAUUACGGGCA	-1.48 ± 0.17	-0.674 ± 0.13
GAGCAGCAAUAUUACGGGGA	-2.84 ± 0.21	-2.05 ± 0.14
GAGCAGCAAUAUUACGGGGG	-3.36 ± 0.26	-2.46 ± 0.32
GAGCAGCAAUAUUACGGGUA	-3.4 ± 0.16	-2.36 ± 0.14
GAGCAGCAAUAUUACGGUGA	-2.25 ± 0.12	-0.646 ± 0.13
GAGCAGCAAUAUUACGUAAG	-2.59 ± 0.17	-1.45 ± 0.18
GAGCAGCAAUAUUACGUCCG	-0.984 ± 0.3	-0.968 ± 0.41
GAGCAGCAAUAUUACGUCGA	-1.51 ± 0.12	-0.741 ± 0.12
GAGCAGCAAUAUUACGUGCA	-1.15 ± 0.071	-0.471 ± 0.081
GAGGAGCAAUAUUACGAAAC	-2.22 ± 0.34	-1.87 ± 0.33
GAGGAGCAAUAUUACGAACC	-2.84 ± 0.42	-1.19 ± 0.38
GAGGAGCAAUAUUACGACAU	-2.069 ± 0.02	-1.21 ± 0.036
GAGGAGCAAUAUUACGACCA	-2.57 ± 0.4	–
GAGGAGCAAUAUUACGAUAA	-2.91 ± 0.26	-1.35 ± 0.33
GAGGAGCAAUAUUACGAUCU	-0.772 ± 0.12	-0.217 ± 0.12
GAGGAGCAAUAUUACGCCCA	0.0821 ± 0.26	-0.507 ± 0.37
GAGGAGCAAUAUUACGCGCG	-2.81 ± 0.28	-0.781 ± 0.39

Sequence	self-splicing fitness (ln) (30 °C)	self-splicing fitness (ln) (37 °C)
GAGGAGCAAUAUUACGGAUC	-1.61 ± 0.16	-0.13 ± 0.17
GAGGAGCAAUAUUACGGAUU	-3.61 ± 0.18	-1.95 ± 0.17
GAGGAGCAAUAUUACGGCGC	-1.62 ± 0.34	-0.697 ± 0.37
GAGGAGCAAUAUUACGUAAC	-1.59 ± 0.19	-2.72 ± 0.41
GAGGAGCAAUAUUACGUAAU	-3.87 ± 0.22	-2.54 ± 0.19
GAGGAGCAAUAUUACGUACG	-2.21 ± 0.19	–
GAGGAGCAAUAUUACGUAGG	-2.42 ± 0.42	-1.27 ± 0.23
GAGGAGCAAUAUUACGUAUC	-4.63 ± 0.42	-2.74 ± 0.33
GAGGAGCAAUAUUACGUGCG	-2.06 ± 0.15	-1.39 ± 0.17
GAGUAGCAAUAUUACGACCC	0.0573 ± 0.39	–
GAGUAGCAAUAUUACGACCG	-3.1 ± 0.39	-0.977 ± 0.37
GAGUAGCAAUAUUACGAUCU	-1.59 ± 0.18	-0.479 ± 0.16
GAGUAGCAAUAUUACGCAAU	–	-2.34 ± 0.31
GAGUAGCAAUAUUACGCAUG	-0.973 ± 0.29	-0.606 ± 0.47
GAGUAGCAAUAUUACGCCAC	-3.64 ± 0.28	-0.452 ± 0.21
GAGUAGCAAUAUUACGCCAG	-3.3 ± 0.26	-2.75 ± 0.48
GAGUAGCAAUAUUACGCCCA	-1.78 ± 0.39	-1.39 ± 0.24
GAGUAGCAAUAUUACGCCCU	-0.812 ± 0.24	-0.124 ± 0.23
GAGUAGCAAUAUUACGCCGA	-1.54 ± 0.17	-0.774 ± 0.13
GAGUAGCAAUAUUACGCCUG	-1.23 ± 0.13	-0.972 ± 0.15
GAGUAGCAAUAUUACGGAAG	-3.65 ± 0.23	-2.71 ± 0.26
GAGUAGCAAUAUUACGGAAU	-2.46 ± 0.31	-1.32 ± 0.23
